Six molecules from patent US20250381223A1 (UTC THERAPEUTICS SHANGHAI, published 2025) can be followed below.

Test [1] deals with T1, CD123-Fc recombinant protein (human, UniProt P26951 19-305).
T1 construct: construct not described; not shown: Fc part
T1 sequence (looked up): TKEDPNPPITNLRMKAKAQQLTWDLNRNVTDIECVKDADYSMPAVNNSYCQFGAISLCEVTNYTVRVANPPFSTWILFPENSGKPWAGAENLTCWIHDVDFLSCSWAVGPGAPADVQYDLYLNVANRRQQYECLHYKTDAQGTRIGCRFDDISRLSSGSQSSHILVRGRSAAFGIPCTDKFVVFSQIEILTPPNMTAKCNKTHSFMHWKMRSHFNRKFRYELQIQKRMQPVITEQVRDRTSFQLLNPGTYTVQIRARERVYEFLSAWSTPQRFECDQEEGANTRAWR
The test is described as follows: flow cytometry of T cells electroporated with CAR mRNA, stained with CD123-Fc + PE-anti-hIgG-Fc. How it is done:
(§1) The CD123 CAR mRNAs obtained in Example 35 above were each introduced into T cells by electroporation according to the following procedures: T cells were collected, washed with the Opti-MEM medium, and resuspended at 1×10e⁷/mL with the Opti-MEM medium; 10 μg of RNA and 100 μL of T cells were aliquoted, mixed well, and electroporated under the following parameters (BTX machine): 500 V, 0.7 ms; the cells were then transferred to a pre-warmed medium and cultured at 37° C. The binding of CD123 CART cells to the CD123-Fc recombinant protein was detected by FACS staining. […] Empty vector (Mock) was a control T cell without CAR molecule. A549 tumor cells were electroporated with different amounts of CD123 mRNA. The electroporation procedure was the same as described above, and only the parameters were changed, with the parameters 300 V, 0.5 ms used. CD123 expression in A549 tumor cells was detected by FACS staining of isotype or anti-CD123 antibodies and A549 cells electroporated with different amounts of CD123 mRNA. […] The cytotoxicity of CD123 CART cells against tumor cells was detected in an in vitro cytotoxicity assay. Tumor cells expressing EGFP or EGFP-A549 cells electroporated with different amounts of tumor antigen were seeded at 3000 cells/100 μL/well into a flat-bottom 96-well plate; CART cells were diluted to a proper concentration and seeded to the 100 μL/well tumor cells according to different E/T ratios (e.g., 10:1, 3:1, or 1:1), and the co-culture plate was placed into the IncuCyte S3 machine and scanning parameters were set. After scanning for 3 days, the total green object integrated intensity (GCU×μm²/well) was analyzed to calculate the killing efficiency.

Test [2] deals with T1, CD123-Fc recombinant protein. Kind of test: flow cytometry of T cells electroporated with CAR mRNA, stained with CD123-Fc + PE-anti-hIgG-Fc; Mock 0.36. How it is done: as §1
In test [3] the target is T2, recombinant human CD40-His antigen protein (human, UniProt P25942 21-193).
T2 construct: Bought protein; also called recombinant CD40-His protein; CD40 antigen; not shown: His tag
Kind of test: ELISA; plate coated with CD40-His 2 µg/mL; IgG1, anti-human IgG-Fc (HRP). How it is done: Therefore, the affinity of the CD40 antibody (in the form of a human classical monoclonal antibody IgG1) was detected by in vitro binding ELISA. The brief experimental procedures were as follows: [0569] (1) Construction of antibody expression plasmid: an antibody VH region was subcloned into a pEF vector containing a human CH1-Fc antibody fragment, and an antibody VL region was subcloned into a pEF vector containing a human CL antibody fragment. [0570] (2) Antibody expression: 33 μg of an antibody heavy chain expression plasmid and 67 μg of an antibody light chain expression plasmid were co-transfected into 293F suspension cells by PEI. After 4 days of culture, the supernatant was collected by centrifugation. [0571] (3) Antibody purification: the protein supernatant and protein A purification medium were incubated on ice for 2 h, and then the supernatant and the purification medium were separated by a gravity column. The purification medium was rinsed thoroughly with 100 mL of pre-cooled PBS to remove impure proteins, and finally, the target protein was eluted from the purification medium with 5-10 mL of 0.1 M Glycine-HCl (pH 2.7), and 1/10 volume of 1 M Tris-HCl (pH 9.0) was immediately added to neutralize the antibody. […] After the protein concentration was measured with A280, the antibody was packaged and cryopreserved at −80° C. […]
(ELISA stands for enzyme-linked immunosorbent assay.)

Test [4] has as its target T1, CD123-Fc recombinant protein. Kind of test: flow cytometry of T cells electroporated with CAR mRNA, stained with CD123-Fc + PE-anti-hIgG-Fc; Mock 1.68. How it is done:
as §1

Test [5] addresses T3, CD40 (analyte of the SPR assay) (UniProt P25942 21-193).
T3 construct: Injected at 3.125-100 nM over captured antibody; also called CD40 antigen
The test is described as follows: SPR (Biacore 2000); antibody captured on protein A chip, CD40 3.125-100 nM; heterogeneous ligand model, KD2. How it is done:
(§2) The experimental procedures were as follows: The binding affinities between the antibodies and the CD40 antigen were detected by SPR technique using Biacore 2000 (Cytiva, Sweden). All experiments were performed at 25° C. […] CD40 diluted in a 2-fold gradient (3.125-100 nM) was injected into the mobile phase. The association time was set at 90 s and the dissociation time at 300 s. The chip surface was regenerated by incubation with 10 mM Glycine-HCl (pH 1.5) for 30 s to remove the bound CD40 and antibody. The affinity of the antibody was simulated using a biphasic ligand model (heterogenerous ligand mode) in the build-in Biacore Evaluation software of the machine.
In general terms: SPR reads the build-up and loss of mass on a sensor chip optically.

In test [6] the target is T3, CD40 (analyte of the SPR assay). Kind of test: SPR (Biacore 2000); antibody captured on protein A chip, CD40 3.125-100 nM; heterogeneous ligand model, KD1. How it is done: as §2
The target is the same in test [7]. The test is described as follows: SPR (Biacore 2000); antibody captured on protein A chip, CD40 3.125-100 nM; heterogeneous ligand model, ka1. How it is done: as §2
The target is the same in test [8]. The test is described as follows: SPR (Biacore 2000); antibody captured on protein A chip, CD40 3.125-100 nM; heterogeneous ligand model, kd2. How it is done: as §2
Test [9] has the same target. Kind of test: SPR (Biacore 2000); antibody captured on protein A chip, CD40 3.125-100 nM; heterogeneous ligand model, ka2. How it is done: (§3) The affinity kinetics of the affinity-matured antibodies were detected using surface plasmon resonance (SPR) technique.
as §2

Test [10] has the same target. The test is described as follows: SPR (Biacore 2000); antibody captured on protein A chip, CD40 3.125-100 nM; heterogeneous ligand model, kd1. How it is done: as §3, §2
Test [11] deals with T2, recombinant human CD40-His antigen …. Kind of test: ELISA; plate coated with CD40-His 2 µg/mL; HRP-anti-hFc. How it is done: The binding activities of the affinity-matured antibodies for antigen CD40 were detected by ELISA. The experimental procedures were as follows: [0637] 1. 50 μL of recombinant CD40-His protein at a concentration of 2 μg/mL was added to each well of an ELISA plate, and the plate was incubated at 4° C. overnight. […] 2. The next day, the ELISA plate was washed 3 times with PBST (containing 0.05% Tween-20). [0639] 3. 250 μL of 5% skim milk powder (dissolved in PBS) was added to each well of the ELISA plate, and the plate was incubated at room temperature for 2 h. [0640] 4. The plate was washed 3 times with PBST, antibodies with different dilution ratios were added to the ELISA plate at 50 μL/well, and the plate was incubated at room temperature for 60 min. [0641] 5. The plate was washed 3 times with PBST, 50 μL of HRP-anti-hFc antibody was added to each well, and the plate was incubated at room temperature for 60 min. [0642] 6. The plate was washed 3 times with PBST, 50 μL of TMB was added to each well, and after color development at room temperature, 50 μL of 2 M HCl was added to each well to stop the reaction. The plate was read at 450 nm.

Values joined by “and” are separate entries in the source; they are usually repeats but may differ in a detail not shown here. Identical values can stand only once.

As usually defined, the EC50 is the concentration needed to bring the measured effect to its halfway point. By Kd is commonly meant the concentration at which binding is half-saturated. As usually defined, the kon is a measure of how fast the partners come together. Broadly, the koff is the rate constant with which the complex falls apart. A higher koff goes with fast dissociation.

B1: C22 (scFv)
scFv: SYELTQPPSVSVAPGKTARITCGANNIETKSVHWYRQRPGQAPILVIYYDSDRPSGIPERFSGSTSGDTATLTISRVEAEDEADYYCQVWDSTSDHVVFGEGTKLTVLGGGGSGGGGSGGGGSEVQLVESGAEVKKPGESLKISCKGSGYSFTSYWIGWVRQMPGKGLEWMGIINPSGGSTSYAQKFQGRVTMTRDTSTSTVYMELSSLRSEDTAVYYCARVVTPYYPLTNWGQGTLVTVSS
notes: also called anti-CD123 scFv-C22
As to B1, in [1], the binding result was “no binding”. In test [2], the “percent of cells in the CD123-Fc positive gate” value (“percent of cells” below) was determined as 0.53%.

B2: F2.103 (antibody, V domains shown)
VH: EVQLVESGGGLVQPGGSLRLSCAVSGFTFSTYWMHWVRQAPGKGLVWVSRINSDGSSTTYADSVKGRFTISRDNAKNTLYLQMNSLRAEDTAVYYCARDRVLWIGELSYYGMDVWGQGTTVTVSS
VL: DIQMTQSPSTLSASVGDRVTITCRASQSISNWLAWYQQKPGKAPKLLLYKASGLESGVPSRFSGSGSGTEFTLTINSLQPDDFATYYCQQSNSYSWTFGHGTKVEIKR
With B2, the EC50 in [3] was 0.0448 µg/mL and 305 nM.

B3: C31 (scFv)
scFv: QPVLTQPPSMSGTPGQRVTISCSGGNSNIGDNSVSWYQQLPGTAPKLLIYNNNQRPLGVPDRFSGSKSGTSASLAIRGLQSEDEAHYYCSSWDDSLEGAQFGGGTKVTVLGGGGSGGGGSGGGGSEVQLVESGGGLVKPGGSLRLSCAASGFTFSDYYMSWIRQAPGKGLEWVSYISSSGSTIYYADSVKGRFTISRDNAKNSLYLQMNSLRAEDTAVYYCARGHQYYDFWSGYSNWFDPWGQGTLVTVSS
notes: also called anti-CD123 scFv-C31
As to B3, the binding result in test [1] is listed as “no binding”. In test [2], the “percent of cells” value was determined as 0.64%.

B4: C12 (scFv)
scFv: QSVLTQPPSVSAAPGQKVTISCSGSSSNIGNNYVSWYQQLPGTAPKLLIFDDNKRPSGIPDRFSGSLSGTSASLAISGLQSEDDADYYCSAWDDSLSGYVFGTGTKLTVLGGGGSGGGGSGGGGSQVQLVQSGGGLVKPGGSLRLSCAASGFTFSSYNINWVRQAPGKGPEWVSSISSSSSYRYYADSVKGRFTISRDNAKNSLYLQMNSLRAEDTAVYYCVRDKTGGYGTAFDYWGQGTLVTVSS
notes: also called anti-CD123 scFv-C12
As for B4, the “percent of cells” value in test [4] was determined as 1.37%. Also, the binding result in test [1] is recorded as “no binding”.

B5: 40.52 (antibody, V domains shown)
VH: QVQLVQSGAEVKKPGSSVKVSCKASGGTFSSYAISWVRQAPGQGLEWMGMINPSGGTTSYAQKFQGRVTMTRDTSTSTVYMELSSLRPEDTAVYYCARGFRMDQWGQGTLVTVSS
VL: QSALTQPPSASGSPGQSVTISCTGTSSDVGAYNFVSWYQQHPGNAPKLIIYDVRKRPSGIPDRFSASKSGNTASLTVSGLQADDEADYYCSSYAGNNNLVFGGGTKLTVL
notes: Tested as human IgG1 (VH on human CH1-Fc, VL on human CL)
Consider B5, for which the Kd in test [5] was 103 nM; in test [6], 0.864 nM. In addition, the figures for the kon in test [7] and in [9] were 1.34e+06 M⁻¹ s⁻¹ and 861000 M⁻¹ s⁻¹, respectively. The koff in test [8] was 0.0885 s⁻¹; in test [10] it was 0.00115 s⁻¹. The EC50 was 0.0492 µg/mL and 344 nM in [3]; 0.0975 µg/mL in test [11].

B6: 4052.17 (antibody, V domains shown)
VH: QVQLVQSGAEVKKPGSSVKVSCKASGGTFSSYAISWVRQAPGQGLEWMGMINPSGGTTSYAQKFQGRVTMTRDTSTSTVYMELSSLRPEDTAVYYCARGFRMDQWGQGTLVTVSS
VL: QSALTQPPSASGSPGQSVTISCTGTSSDVGAYNFVSWYQQHPGNAPKLIIYDVRKRPSGIPDRFSASKSGNTASLTVSGLQADDEADYYCSSYAGNNEMVFGGGTKLTVL
Regarding B6, the results for the Kd in test [5] and in test [6] were 48.4 nM and 0.686 nM, respectively. In addition, the kon in test [7] worked out at 1.49e+06 M⁻¹ s⁻¹; in test [9] it was 748000 M⁻¹ s⁻¹. Moreover, the koff is 0.0362 s⁻¹ in test [8] and 0.00102 s⁻¹ in test [10]. In addition, the EC50 in test [11] is 0.0944 µg/mL.
